Experimental findings from paper PMC10786891, “Massively parallel profiling of RNA-targeting CRISPR-Cas13d” are described below.

T1: EsCas13d, nuclease-dead (Eubacterium siraeum, UniProt B0MS50, R295A;H300A;R849A;H854A)
T1 sequence: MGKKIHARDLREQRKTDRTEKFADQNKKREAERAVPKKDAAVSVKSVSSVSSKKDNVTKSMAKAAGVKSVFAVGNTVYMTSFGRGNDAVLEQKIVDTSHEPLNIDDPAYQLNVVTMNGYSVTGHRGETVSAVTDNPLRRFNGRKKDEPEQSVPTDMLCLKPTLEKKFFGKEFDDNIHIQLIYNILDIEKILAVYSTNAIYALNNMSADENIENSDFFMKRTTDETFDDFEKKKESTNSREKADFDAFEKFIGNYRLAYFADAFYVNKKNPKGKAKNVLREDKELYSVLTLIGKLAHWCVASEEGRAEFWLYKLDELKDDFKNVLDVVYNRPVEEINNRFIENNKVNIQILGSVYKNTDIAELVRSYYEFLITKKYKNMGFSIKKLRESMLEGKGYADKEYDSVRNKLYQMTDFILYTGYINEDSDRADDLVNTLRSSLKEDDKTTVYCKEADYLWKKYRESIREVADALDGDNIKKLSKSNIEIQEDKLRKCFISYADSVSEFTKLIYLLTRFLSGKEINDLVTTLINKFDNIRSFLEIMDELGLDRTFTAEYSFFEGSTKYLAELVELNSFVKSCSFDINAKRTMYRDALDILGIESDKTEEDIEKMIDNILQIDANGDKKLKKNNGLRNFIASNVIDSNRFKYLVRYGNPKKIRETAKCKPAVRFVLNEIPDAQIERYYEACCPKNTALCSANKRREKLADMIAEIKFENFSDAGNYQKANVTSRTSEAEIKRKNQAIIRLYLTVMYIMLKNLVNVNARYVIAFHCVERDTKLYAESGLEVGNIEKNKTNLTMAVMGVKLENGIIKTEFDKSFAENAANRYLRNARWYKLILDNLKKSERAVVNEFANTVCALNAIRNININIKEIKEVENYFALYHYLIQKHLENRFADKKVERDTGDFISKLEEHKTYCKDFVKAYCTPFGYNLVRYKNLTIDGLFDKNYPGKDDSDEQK

B1: target 2 MT 5'PFS UAG 3'PFS CAG (mixed)
RNA 1: CACCCGUGCAAAAUUGCAGGGGUCUAAAACCUUCUCCAAAUUGUUUCAUCCU
RNA 2: GGGAAUGGAUCCACAUCUACGAAUUCUAGAGGAUGAAACAAUUUGGAGAAGCAGAGAUCGGAAGAGCACACGU
B2: target 2 MT 5'PFS CGG 3'PFS AAU (mixed)
RNA 1: CACCCGUGCAAAAUUGCAGGGGUCUAAAACCUUCUCCAAAUUGUUUCAUCCU
RNA 2: GGGAAUGGAUCCACAUCUACGAAUUCCGGAGGAUGAAACAAUUUGGAGAAGAAUAGAUCGGAAGAGCACACGU
B3: target 2 MT 5'PFS CUU 3'PFS CUA (mixed)
RNA 1: CACCCGUGCAAAAUUGCAGGGGUCUAAAACCUUCUCCAAAUUGUUUCAUCCU
RNA 2: GGGAAUGGAUCCACAUCUACGAAUUCCUUAGGAUGAAACAAUUUGGAGAAGCUAAGAUCGGAAGAGCACACGU
B4: target 2 MT 5'PFS CUU 3'PFS CUG (mixed)
RNA 1: CACCCGUGCAAAAUUGCAGGGGUCUAAAACCUUCUCCAAAUUGUUUCAUCCU
RNA 2: GGGAAUGGAUCCACAUCUACGAAUUCCUUAGGAUGAAACAAUUUGGAGAAGCUGAGAUCGGAAGAGCACACGU
B5: target 2 MT 5'PFS CGG 3'PFS AAC (mixed)
RNA 1: CACCCGUGCAAAAUUGCAGGGGUCUAAAACCUUCUCCAAAUUGUUUCAUCCU
RNA 2: GGGAAUGGAUCCACAUCUACGAAUUCCGGAGGAUGAAACAAUUUGGAGAAGAACAGAUCGGAAGAGCACACGU
B6: target 2 MT 5'PFS CGC 3'PFS UGC (mixed)
RNA 1: CACCCGUGCAAAAUUGCAGGGGUCUAAAACCUUCUCCAAAUUGUUUCAUCCU
RNA 2: GGGAAUGGAUCCACAUCUACGAAUUCCGCAGGAUGAAACAAUUUGGAGAAGUGCAGAUCGGAAGAGCACACGU
B7: target 2 MT 5'PFS CUU 3'PFS CUU (mixed)
RNA 1: CACCCGUGCAAAAUUGCAGGGGUCUAAAACCUUCUCCAAAUUGUUUCAUCCU
RNA 2: GGGAAUGGAUCCACAUCUACGAAUUCCUUAGGAUGAAACAAUUUGGAGAAGCUUAGAUCGGAAGAGCACACGU
B8: target 2 MT 5'PFS UCU 3'PFS AAC (mixed)
RNA 1: CACCCGUGCAAAAUUGCAGGGGUCUAAAACCUUCUCCAAAUUGUUUCAUCCU
RNA 2: GGGAAUGGAUCCACAUCUACGAAUUCUCUAGGAUGAAACAAUUUGGAGAAGAACAGAUCGGAAGAGCACACGU
B9: target 2 MT 5'PFS UCU 3'PFS AAU (mixed)
RNA 1: CACCCGUGCAAAAUUGCAGGGGUCUAAAACCUUCUCCAAAUUGUUUCAUCCU
RNA 2: GGGAAUGGAUCCACAUCUACGAAUUCUCUAGGAUGAAACAAUUUGGAGAAGAAUAGAUCGGAAGAGCACACGU
B10: target 2 MT 5'PFS UUU 3'PFS CGA (mixed)
RNA 1: CACCCGUGCAAAAUUGCAGGGGUCUAAAACCUUCUCCAAAUUGUUUCAUCCU
RNA 2: GGGAAUGGAUCCACAUCUACGAAUUCUUUAGGAUGAAACAAUUUGGAGAAGCGAAGAUCGGAAGAGCACACGU
B11: target 2 MT 5'PFS CAU 3'PFS CGG (mixed)
RNA 1: CACCCGUGCAAAAUUGCAGGGGUCUAAAACCUUCUCCAAAUUGUUUCAUCCU
RNA 2: GGGAAUGGAUCCACAUCUACGAAUUCCAUAGGAUGAAACAAUUUGGAGAAGCGGAGAUCGGAAGAGCACACGU
B12: target 2 MT 5'PFS UUU 3'PFS CGC (mixed)
RNA 1: CACCCGUGCAAAAUUGCAGGGGUCUAAAACCUUCUCCAAAUUGUUUCAUCCU
RNA 2: GGGAAUGGAUCCACAUCUACGAAUUCUUUAGGAUGAAACAAUUUGGAGAAGCGCAGAUCGGAAGAGCACACGU
B13: target 2 MT 5'PFS CAC 3'PFS UUU (mixed)
RNA 1: CACCCGUGCAAAAUUGCAGGGGUCUAAAACCUUCUCCAAAUUGUUUCAUCCU
RNA 2: GGGAAUGGAUCCACAUCUACGAAUUCCACAGGAUGAAACAAUUUGGAGAAGUUUAGAUCGGAAGAGCACACGU
B14: target 2 MT 5'PFS UCU 3'PFS AAG (mixed)
RNA 1: CACCCGUGCAAAAUUGCAGGGGUCUAAAACCUUCUCCAAAUUGUUUCAUCCU
RNA 2: GGGAAUGGAUCCACAUCUACGAAUUCUCUAGGAUGAAACAAUUUGGAGAAGAAGAGAUCGGAAGAGCACACGU
B15: target 2 MT 5'PFS UCU 3'PFS AAA (mixed)
RNA 1: CACCCGUGCAAAAUUGCAGGGGUCUAAAACCUUCUCCAAAUUGUUUCAUCCU
RNA 2: GGGAAUGGAUCCACAUCUACGAAUUCUCUAGGAUGAAACAAUUUGGAGAAGAAAAGAUCGGAAGAGCACACGU
B16: target 2 MT 5'PFS AUU 3'PFS CAG (mixed)
RNA 1: CACCCGUGCAAAAUUGCAGGGGUCUAAAACCUUCUCCAAAUUGUUUCAUCCU
RNA 2: GGGAAUGGAUCCACAUCUACGAAUUCAUUAGGAUGAAACAAUUUGGAGAAGCAGAGAUCGGAAGAGCACACGU
B17: target 2 MT 5'PFS UGU 3'PFS UCU (mixed)
RNA 1: CACCCGUGCAAAAUUGCAGGGGUCUAAAACCUUCUCCAAAUUGUUUCAUCCU
RNA 2: GGGAAUGGAUCCACAUCUACGAAUUCUGUAGGAUGAAACAAUUUGGAGAAGUCUAGAUCGGAAGAGCACACGU
B18: target 2 MT 5'PFS CGG 3'PFS AAG (mixed)
RNA 1: CACCCGUGCAAAAUUGCAGGGGUCUAAAACCUUCUCCAAAUUGUUUCAUCCU
RNA 2: GGGAAUGGAUCCACAUCUACGAAUUCCGGAGGAUGAAACAAUUUGGAGAAGAAGAGAUCGGAAGAGCACACGU
B19: target 2 MT 5'PFS UGU 3'PFS UCG (mixed)
RNA 1: CACCCGUGCAAAAUUGCAGGGGUCUAAAACCUUCUCCAAAUUGUUUCAUCCU
RNA 2: GGGAAUGGAUCCACAUCUACGAAUUCUGUAGGAUGAAACAAUUUGGAGAAGUCGAGAUCGGAAGAGCACACGU
B20: target 2 MT 5'PFS AAC 3'PFS UUA (mixed)
RNA 1: CACCCGUGCAAAAUUGCAGGGGUCUAAAACCUUCUCCAAAUUGUUUCAUCCU
RNA 2: GGGAAUGGAUCCACAUCUACGAAUUCAACAGGAUGAAACAAUUUGGAGAAGUUAAGAUCGGAAGAGCACACGU
B21: target 2 MT 5'PFS CUU 3'PFS CUC (mixed)
RNA 1: CACCCGUGCAAAAUUGCAGGGGUCUAAAACCUUCUCCAAAUUGUUUCAUCCU
RNA 2: GGGAAUGGAUCCACAUCUACGAAUUCCUUAGGAUGAAACAAUUUGGAGAAGCUCAGAUCGGAAGAGCACACGU
B22: target 2 MT 5'PFS UAG 3'PFS CAU (mixed)
RNA 1: CACCCGUGCAAAAUUGCAGGGGUCUAAAACCUUCUCCAAAUUGUUUCAUCCU
RNA 2: GGGAAUGGAUCCACAUCUACGAAUUCUAGAGGAUGAAACAAUUUGGAGAAGCAUAGAUCGGAAGAGCACACGU
B23: target 2 MT 5'PFS GCG 3'PFS CUA (mixed)
RNA 1: CACCCGUGCAAAAUUGCAGGGGUCUAAAACCUUCUCCAAAUUGUUUCAUCCU
RNA 2: GGGAAUGGAUCCACAUCUACGAAUUCGCGAGGAUGAAACAAUUUGGAGAAGCUAAGAUCGGAAGAGCACACGU
B24: target 2 MT 5'PFS CGG 3'PFS AAA (mixed)
RNA 1: CACCCGUGCAAAAUUGCAGGGGUCUAAAACCUUCUCCAAAUUGUUUCAUCCU
RNA 2: GGGAAUGGAUCCACAUCUACGAAUUCCGGAGGAUGAAACAAUUUGGAGAAGAAAAGAUCGGAAGAGCACACGU
B25: target 1 complement block 6-8 (mixed)
RNA 1: CACCCGUGCAAAAAUGCAGGGGUCUAAAACUGAGCGGAUAACCUCUCUAUGG
RNA 2: GGGAAUGGAUCCACAUCUACGAAUUCGUACCAUAGAGAGGUUAAGGGCUCACCGAGAUCGGAAGAGCACACGU
B26: target 1 insA 3' of 8,insG 3' of 6 (mixed)
RNA 1: CACCCGUGCAAAAAUGCAGGGGUCUAAAACUGAGCGGAUAACCUCUCUAUGG
RNA 2: GGGAAUGGAUCCACAUCUACGAAUUCGUACCAUAGAGAGGUUAUACCGGCUCACCGAGAUCGGAAGAGCACACGU
B27: target 1 insU 3' of 21,insG 3' of 14 (mixed)
RNA 1: CACCCGUGCAAAAAUGCAGGGGUCUAAAACUGAGCGGAUAACCUCUCUAUGG
RNA 2: GGGAAUGGAUCCACAUCUACGAAUUCGUACCUAUAGAGAGGGUUAUCCGCUCACCGAGAUCGGAAGAGCACACGU

This data set deals with T1, EsCas13d, nuclease-dead. Put plainly: crRNA (strand 1, pre-loaded); Mg2+; 40 mM Tris-HCl pH 7.5, 150 mM NaCl, 6 mM MgCl2, 1 mM DTT, 0.1% Tween-20, 0.2 mg/ml BSA; 25 C; 10 min per concentration, then washed. Particulars: tags: His6-TwinStrep-SUMO cleaved; N-terminal SNAP kept (SNAP-Surface 488); label: 3' end held by stalled T7 RNA polymerase.
Molecule B1 gave a Kd of 2.68 ± 0.21 nM.
B2 had a Kd of 4.8 ± 0.7 nM.
As for B3, the figure is 10.8 ± 3.5 nM; as for B4, 4.2 ± 0.8 nM; as for B5, 4.2 ± 0.4 nM.
For B6, binding was characterised by a dissociation constant (Kd) of 6 ± 0.9 nM.
The same measure for B7: 4.7 ± 0.5 nM.
B8 had a dissociation constant (Kd) of 9.5 ± 1.7 nM.
In the case of B9, the equilibrium dissociation constant (Kd) is 26 ± 10 nM.
Molecule B10 gave a Kd of 8 ± 0.9 nM.
Molecule B11 came in with a Kd of 2.83 ± 0.35 nM.
Molecule B12 displayed a Kd of 6.4 ± 0.5 nM.
As for B13, the figure is 5.2 ± 0.8 nM; as for B14, 20 ± 6 nM; as for B15, 20 ± 8 nM.
The molecule B16 gave a dissociation constant (Kd) of 6.9 ± 1.1 nM.
On to B17, for which the dissociation constant Kd stood at 17.7 ± 2.2 nM.
For B18, the dissociation constant (Kd) turned out to be 4.4 ± 0.5 nM.
B19 registered an equilibrium dissociation constant (Kd) of 15.8 ± 2.5 nM.
Take B20: binding was put at a Kd of 7.4 ± 1.7 nM.
Molecule B21 came in with a dissociation constant Kd of 5.6 ± 0.5 nM.
In the case of B22, the Kd came to 3.7 ± 0.5 nM.
B23 showed a Kd of 14.3 ± 2.7 nM.
In turn, B24 came in with a Kd of 5.7 ± 0.9 nM.
Molecule B25 registered a Kd of 8.69 ± 0.24 nM.
Regarding B26, the Kd stood at 17.5 ± 0.9 nM.
Consider B27, for which binding was characterised by a dissociation constant (Kd) of 39 ± 4 nM.

Broadly, the Kd is the constant that tells how readily two partners part at equilibrium.
